Among the data in patent US20060263349A1 are CDC activity above background cell lysis, Rituximab concentration and percentage of live cells remaining values, retold here.

For the assay, the target named is human CD20 on WIL2-S B lymphoblast cells (human) (UniProt P11836). Nature of the assay: cell-based or functional assay.
Chain of UniProt P11836 (P11836 whole entry): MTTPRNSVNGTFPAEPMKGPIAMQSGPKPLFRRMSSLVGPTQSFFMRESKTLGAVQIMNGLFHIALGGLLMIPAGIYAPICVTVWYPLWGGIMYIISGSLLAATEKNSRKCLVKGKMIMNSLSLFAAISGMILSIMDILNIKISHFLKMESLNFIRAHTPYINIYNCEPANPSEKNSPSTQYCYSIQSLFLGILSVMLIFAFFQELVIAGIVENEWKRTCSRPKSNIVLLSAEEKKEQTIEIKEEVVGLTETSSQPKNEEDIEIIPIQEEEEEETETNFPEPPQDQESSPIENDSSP

In turn, Rituximab (antibody) gave a CDC activity above background cell lysis at 0.4 µg/mL Rituximab of 25 to 30%; a Rituximab concentration at maximal cell lysis (CDC, WIL2-S cells, … GLO) of 5 µg/mL; a percentage of live cells remaining at 1 µg/mL Rituximab (control) of 40%.
